We go through three molecules from paper PMC8781159, “Implication of Potential Differential Roles of the Two Phosphoglucomutase Isoforms in the Protozoan Parasite Cryptosporidium parvum” (Pathogens, 2021).

Series [1] addresses T1, CpPGM1B long form (rCpPGM1B-L) (Cryptosporidium parvum, UniProt Q5CTF2).
T1 construct: gene cgd2_3270; linker plus PGM1 domain; signal peptide (63 nt) removed (full ORF 2013 bp); MBP-fusion (pMAL-c5x), E. coli BL21(DE3), MBP kept
T1 sequence (Q5CTF2 24-670): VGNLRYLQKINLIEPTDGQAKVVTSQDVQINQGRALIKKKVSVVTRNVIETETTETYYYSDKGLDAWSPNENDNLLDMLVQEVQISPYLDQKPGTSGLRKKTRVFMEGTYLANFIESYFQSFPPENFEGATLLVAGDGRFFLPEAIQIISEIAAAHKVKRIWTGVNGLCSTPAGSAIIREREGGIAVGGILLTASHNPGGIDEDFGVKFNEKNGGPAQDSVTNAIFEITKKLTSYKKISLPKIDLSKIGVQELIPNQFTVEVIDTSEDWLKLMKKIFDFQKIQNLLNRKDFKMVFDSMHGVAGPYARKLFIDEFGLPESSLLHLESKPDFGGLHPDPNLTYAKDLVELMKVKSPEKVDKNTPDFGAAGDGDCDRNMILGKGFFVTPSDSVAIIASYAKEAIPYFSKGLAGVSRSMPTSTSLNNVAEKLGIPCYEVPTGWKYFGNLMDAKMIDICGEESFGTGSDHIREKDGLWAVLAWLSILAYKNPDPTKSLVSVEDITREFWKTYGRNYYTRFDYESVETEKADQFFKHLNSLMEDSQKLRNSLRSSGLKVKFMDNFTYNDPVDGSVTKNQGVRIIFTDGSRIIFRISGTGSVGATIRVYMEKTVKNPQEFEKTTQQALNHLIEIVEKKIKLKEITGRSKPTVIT
The experiment in a line: G6PDH-coupled assay, NADH formation at […] nm. Type of series: biochemical. The note with it: 50 mM Tris-HCl pH 8.5, 1.0 mM MgCl2, 0.2 mM NAD+, 2 mM G1P.

Substrate in the series “purified protein”: O=P(O)(O)O[C@H]1O[C@H](CO)[C@@H](O)[C@H](O)[C@H]1O
The experiment in a line: purified protein. Type of series: biochemical, Cryptosporidium parvum. Conditions: 50 mM Tris-HCl pH 8.5, 1.0 mM MgCl2, 0.2 mM NAD+.

Regarding `O=P(O)(O)O[C@H]1O[C@H](CO)[C@@H](O)[C@H](O)[C@H]1O` [G1P, glucose-1-phosphate], the “G6PDH-coupled assay, NADH formation at 340 nm” value in series [1] is “rCpPGM1A, rCpPGM1B-L and rCpPGM1B-S) displayed activity in converting G1P to G6P”.

B1: CpPGM1B short form (rCpPGM1B-S) (Cryptosporidium parvum Iowa II) (protein)
chain: LLDMLVQEVQISPYLDQKPGTSGLRKKTRVFMEGTYLANFIESYFQSFPPENFEGATLLVAGDGRFFLPEAIQIISEIAAAHKVKRIWTGVNGLCSTPAGSAIIREREGGIAVGGILLTASHNPGGIDEDFGVKFNEKNGGPAQDSVTNAIFEITKKLTSYKKISLPKIDLSKIGVQELIPNQFTVEVIDTSEDWLKLMKKIFDFQKIQNLLNRKDFKMVFDSMHGVAGPYARKLFIDEFGLPESSLLHLESKPDFGGLHPDPNLTYAKDLVELMKVKSPEKVDKNTPDFGAAGDGDCDRNMILGKGFFVTPSDSVAIIASYAKEAIPYFSKGLAGVSRSMPTSTSLNNVAEKLGIPCYEVPTGWKYFGNLMDAKMIDICGEESFGTGSDHIREKDGLWAVLAWLSILAYKNPDPTKSLVSVEDITREFWKTYGRNYYTRFDYESVETEKADQFFKHLNSLMEDSQKLRNSLRSSGLKVKFMDNFTYNDPVDGSVTKNQGVRIIFTDGSRIIFRISGTGSVGATIRVYMEKTVKNPQEFEKTTQQALNHLIEIVEKKIKLKEITGRSKPTVIT
notes: PGM1 domain only; signal peptide and ~80 aa linker removed (full ORF 2013 bp); MBP-fusion (pMAL-c5x), E. coli BL21(DE3), MBP kept
B1: in “purified protein”, the Km is 130 µM.

B2: CpPGM1A (rCpPGM1A) (Cryptosporidium parvum) (protein)
chain: MEQVQVTPYLDQKPGTSGLRKKTRVFMEGTYLANFIESYFQSFPPENFEGATLLVAGDGRFFLPEAIQIISEIAAAHKVKRIWTGVNGLCSTPAGSAIIREREGGIAVGGILLTASHNPGGIDEDFGVKFNGKNGGPAQDSVTNTIFEITKKLTSYKKISLPKIDLSKIGVQELIPNQFTVEVIDTSEDWLKLMKKIFDFQKIQNLLNRKDFKMAFDSMHGVAGPYARKLFVDEFGLPESSLLHLESKPDFGGLHPDPNLTYAKDLVELMKVKSPEKVDKSTPDFGAAGDGDCDRNMILGKGFFVTPSDSVAIIASYAKEAIPYFSKGLAGVSRSMPTSTSLNNVAEKLGIPCYEVPTGWKYFGNLMDAKMIDICGEESFGTGSDHIREKDGLWAVLAWLSILAHKNPDPTKPLVSVEDITREFWKTYGRNYYTRFDYESIETEKADQFFKHLNSLMEDHQKLREIIKPYGIDIKLTDNFTYNDPVDKSVAKNQGLRFIFQDNSRVVFRLSGTGSVGATIRIYIEKTVSDQTKVNSTSNEILGDLIEIVEKKIKLKESTGRDRPTVIT
For B2, the Michaelis constant (Km) in the series “purified protein” turned out to be 170 µM.

By Km is commonly meant the substrate concentration at which the rate is half of its maximum.
